Measurements from patent US20250218531A1 (ABSCI, published 2025).
Where “and” joins values, the source holds several entries; their conditions need not be identical. Identical values can stand only once.

Each binder was assayed against human epidermal growth factor receptor 2 (HER2) extracellular domain (human, UniProt P04626 23-629) (assay: SPR).

Binder	Kd	log(KD (M))
Trastuzumab HCDR3 variant ARNSGTGIWAFAY (Fab, V domains shown) VH: EVQLVESGGGLVQPGGSLRLSCAASGFNIKDTYIHWVRQAPGKGLEWVARIYPTNGYTRYADSVKGRFTISADTSKNTAYLQMNSLRAEDTAVYYCARNSGTGIWAFAYWGQGTLVTVSS VL: not shown	65 nM	-7.19 log(M)
Trastuzumab HCDR3 variant ARPSYDVGGDMLF (Fab, V domains shown) VH: EVQLVESGGGLVQPGGSLRLSCAASGFNIKDTYIHWVRQAPGKGLEWVARIYPTNGYTRYADSVKGRFTISADTSKNTAYLQMNSLRAEDTAVYYCARPSYDVGGDMLFWGQGTLVTVSS VL: not shown	83.3 nM and 83.2 nM	-7.08 log(M)
Trastuzumab HCDR3 variant ARSYFRFTGDFFY (Fab, V domains shown) VH: EVQLVESGGGLVQPGGSLRLSCAASGFNIKDTYIHWVRQAPGKGLEWVARIYPTNGYTRYADSVKGRFTISADTSKNTAYLQMNSLRAEDTAVYYCARSYFRFTGDFFYWGQGTLVTVSS VL: not shown	135 nM	-6.87 log(M)
Trastuzumab HCDR3 variant ARYFYDHYYYFDV (Fab, V domains shown) VH: EVQLVESGGGLVQPGGSLRLSCAASGFNIKDTYIHWVRQAPGKGLEWVARIYPTNGYTRYADSVKGRFTISADTSKNTAYLQMNSLRAEDTAVYYCARYFYDHYYYFDVWGQGTLVTVSS VL: not shown	29.7 nM	-7.53 log(M)
Trastuzumab HCDR3 variant ARWGYGYYYSFDY (Fab, V domains shown) VH: EVQLVESGGGLVQPGGSLRLSCAASGFNIKDTYIHWVRQAPGKGLEWVARIYPTNGYTRYADSVKGRFTISADTSKNTAYLQMNSLRAEDTAVYYCARWGYGYYYSFDYWGQGTLVTVSS VL: not shown	38 nM	-7.42 log(M)
Trastuzumab HCDR3 variant ARWGTYTYGYFDY (Fab, V domains shown) VH: EVQLVESGGGLVQPGGSLRLSCAASGFNIKDTYIHWVRQAPGKGLEWVARIYPTNGYTRYADSVKGRFTISADTSKNTAYLQMNSLRAEDTAVYYCARWGTYTYGYFDYWGQGTLVTVSS VL: not shown	88.1 nM	-7.05 log(M)
Trastuzumab HCDR3 variant ARWVSGARYYMDV (Fab, V domains shown) VH: EVQLVESGGGLVQPGGSLRLSCAASGFNIKDTYIHWVRQAPGKGLEWVARIYPTNGYTRYADSVKGRFTISADTSKNTAYLQMNSLRAEDTAVYYCARWVSGARYYMDVWGQGTLVTVSS VL: not shown	33.8 nM	-7.47 log(M)
Trastuzumab HCDR3 variant ARYGDADFYAFDP (Fab, V domains shown) VH: EVQLVESGGGLVQPGGSLRLSCAASGFNIKDTYIHWVRQAPGKGLEWVARIYPTNGYTRYADSVKGRFTISADTSKNTAYLQMNSLRAEDTAVYYCARYGDADFYAFDPWGQGTLVTVSS VL: not shown	35.8 nM	-7.45 log(M)
Trastuzumab HCDR3 variant ARSYAFLYGRMDY (Fab, V domains shown) VH: EVQLVESGGGLVQPGGSLRLSCAASGFNIKDTYIHWVRQAPGKGLEWVARIYPTNGYTRYADSVKGRFTISADTSKNTAYLQMNSLRAEDTAVYYCARSYAFLYGRMDYWGQGTLVTVSS VL: not shown	189 nM and 188 nM	-6.72 log(M)
Trastuzumab HCDR3 variant ARSGYPGYGSFAY (Fab, V domains shown) VH: EVQLVESGGGLVQPGGSLRLSCAASGFNIKDTYIHWVRQAPGKGLEWVARIYPTNGYTRYADSVKGRFTISADTSKNTAYLQMNSLRAEDTAVYYCARSGYPGYGSFAYWGQGTLVTVSS VL: not shown	60.7 nM	-7.22 log(M)
Trastuzumab HCDR3 variant ARWEQASVGSFGY (Fab, V domains shown) VH: EVQLVESGGGLVQPGGSLRLSCAASGFNIKDTYIHWVRQAPGKGLEWVARIYPTNGYTRYADSVKGRFTISADTSKNTAYLQMNSLRAEDTAVYYCARWEQASVGSFGYWGQGTLVTVSS VL: not shown	226 nM	-6.65 log(M)
Trastuzumab HCDR3 variant ARWWTPANYPFLY (Fab, V domains shown) VH: EVQLVESGGGLVQPGGSLRLSCAASGFNIKDTYIHWVRQAPGKGLEWVARIYPTNGYTRYADSVKGRFTISADTSKNTAYLQMNSLRAEDTAVYYCARWWTPANYPFLYWGQGTLVTVSS VL: not shown	133 nM	-6.88 log(M)
Trastuzumab HCDR3 variant ARWGGFGYYYFDY (Fab, V domains shown) VH: EVQLVESGGGLVQPGGSLRLSCAASGFNIKDTYIHWVRQAPGKGLEWVARIYPTNGYTRYADSVKGRFTISADTSKNTAYLQMNSLRAEDTAVYYCARWGGFGYYYFDYWGQGTLVTVSS VL: not shown	31 nM	-7.51 log(M)
Trastuzumab HCDR3 variant ARWLRGLGYYWDY (Fab, V domains shown) VH: EVQLVESGGGLVQPGGSLRLSCAASGFNIKDTYIHWVRQAPGKGLEWVARIYPTNGYTRYADSVKGRFTISADTSKNTAYLQMNSLRAEDTAVYYCARWLRGLGYYWDYWGQGTLVTVSS VL: not shown	40.1 nM	-7.4 log(M)
Trastuzumab HCDR3 variant ARTVVGWYGRFDY (Fab, V domains shown) VH: EVQLVESGGGLVQPGGSLRLSCAASGFNIKDTYIHWVRQAPGKGLEWVARIYPTNGYTRYADSVKGRFTISADTSKNTAYLQMNSLRAEDTAVYYCARTVVGWYGRFDYWGQGTLVTVSS VL: not shown	63.6 nM	-7.2 log(M)
Trastuzumab HCDR3 variant ARWPPYYWWAFDY (Fab, V domains shown) VH: EVQLVESGGGLVQPGGSLRLSCAASGFNIKDTYIHWVRQAPGKGLEWVARIYPTNGYTRYADSVKGRFTISADTSKNTAYLQMNSLRAEDTAVYYCARWPPYYWWAFDYWGQGTLVTVSS VL: not shown	65.6 nM	-7.18 log(M)

Binder	Kd	log(KD (M))
Trastuzumab HCDR3 variant ARYDYYGYYYFDY (Fab, V domains shown) VH: EVQLVESGGGLVQPGGSLRLSCAASGFNIKDTYIHWVRQAPGKGLEWVARIYPTNGYTRYADSVKGRFTISADTSKNTAYLQMNSLRAEDTAVYYCARYDYYGYYYFDYWGQGTLVTVSS VL: not shown	99 nM	-7 log(M)
Trastuzumab HCDR3 variant ARWRYGGAYQFAL (Fab, V domains shown) VH: EVQLVESGGGLVQPGGSLRLSCAASGFNIKDTYIHWVRQAPGKGLEWVARIYPTNGYTRYADSVKGRFTISADTSKNTAYLQMNSLRAEDTAVYYCARWRYGGAYQFALWGQGTLVTVSS VL: not shown	231 nM	-6.64 log(M)
Trastuzumab HCDR3 variant ARWGSEAFYWFDY (Fab, V domains shown) VH: EVQLVESGGGLVQPGGSLRLSCAASGFNIKDTYIHWVRQAPGKGLEWVARIYPTNGYTRYADSVKGRFTISADTSKNTAYLQMNSLRAEDTAVYYCARWGSEAFYWFDYWGQGTLVTVSS VL: not shown	32.8 nM	-7.48 log(M)
Trastuzumab HCDR3 variant ARWGSYGYYYFDY (Fab, V domains shown) VH: EVQLVESGGGLVQPGGSLRLSCAASGFNIKDTYIHWVRQAPGKGLEWVARIYPTNGYTRYADSVKGRFTISADTSKNTAYLQMNSLRAEDTAVYYCARWGSYGYYYFDYWGQGTLVTVSS VL: not shown	30.9 nM	-7.51 log(M)
Trastuzumab HCDR3 variant ARWARGAGYYWDY (Fab, V domains shown) VH: EVQLVESGGGLVQPGGSLRLSCAASGFNIKDTYIHWVRQAPGKGLEWVARIYPTNGYTRYADSVKGRFTISADTSKNTAYLQMNSLRAEDTAVYYCARWARGAGYYWDYWGQGTLVTVSS VL: not shown	89.6 nM	-7.05 log(M)
Trastuzumab HCDR3 variant ARYGAYSSYYFGY (Fab, V domains shown) VH: EVQLVESGGGLVQPGGSLRLSCAASGFNIKDTYIHWVRQAPGKGLEWVARIYPTNGYTRYADSVKGRFTISADTSKNTAYLQMNSLRAEDTAVYYCARYGAYSSYYFGYWGQGTLVTVSS VL: not shown	28 nM	-7.55 log(M)
Trastuzumab HCDR3 variant ARYGARSGYAYEY (Fab, V domains shown) VH: EVQLVESGGGLVQPGGSLRLSCAASGFNIKDTYIHWVRQAPGKGLEWVARIYPTNGYTRYADSVKGRFTISADTSKNTAYLQMNSLRAEDTAVYYCARYGARSGYAYEYWGQGTLVTVSS VL: not shown	45.1 nM	-7.35 log(M)
Trastuzumab HCDR3 variant ARWQGRSGYYMDY (Fab, V domains shown) VH: EVQLVESGGGLVQPGGSLRLSCAASGFNIKDTYIHWVRQAPGKGLEWVARIYPTNGYTRYADSVKGRFTISADTSKNTAYLQMNSLRAEDTAVYYCARWQGRSGYYMDYWGQGTLVTVSS VL: not shown	48.3 nM	-7.32 log(M)
Trastuzumab HCDR3 variant ARWEGYGSYEFAY (Fab, V domains shown) VH: EVQLVESGGGLVQPGGSLRLSCAASGFNIKDTYIHWVRQAPGKGLEWVARIYPTNGYTRYADSVKGRFTISADTSKNTAYLQMNSLRAEDTAVYYCARWEGYGSYEFAYWGQGTLVTVSS VL: not shown	42.5 nM	-7.37 log(M)
Trastuzumab HCDR3 variant ARWYGLGSYGLTY (Fab, V domains shown) VH: EVQLVESGGGLVQPGGSLRLSCAASGFNIKDTYIHWVRQAPGKGLEWVARIYPTNGYTRYADSVKGRFTISADTSKNTAYLQMNSLRAEDTAVYYCARWYGLGSYGLTYWGQGTLVTVSS VL: not shown	223 nM	-6.65 log(M)
Trastuzumab HCDR3 variant ARNYYYGAYYFDY (Fab, V domains shown) VH: EVQLVESGGGLVQPGGSLRLSCAASGFNIKDTYIHWVRQAPGKGLEWVARIYPTNGYTRYADSVKGRFTISADTSKNTAYLQMNSLRAEDTAVYYCARNYYYGAYYFDYWGQGTLVTVSS VL: not shown	45.5 nM	-7.34 log(M)
Trastuzumab HCDR3 variant ARSYAYLYGSWDY (Fab, V domains shown) VH: EVQLVESGGGLVQPGGSLRLSCAASGFNIKDTYIHWVRQAPGKGLEWVARIYPTNGYTRYADSVKGRFTISADTSKNTAYLQMNSLRAEDTAVYYCARSYAYLYGSWDYWGQGTLVTVSS VL: not shown	102 nM	-6.99 log(M)
Trastuzumab HCDR3 variant ARWERYGYYVLDV (Fab, V domains shown) VH: EVQLVESGGGLVQPGGSLRLSCAASGFNIKDTYIHWVRQAPGKGLEWVARIYPTNGYTRYADSVKGRFTISADTSKNTAYLQMNSLRAEDTAVYYCARWERYGYYVLDVWGQGTLVTVSS VL: not shown	27.9 nM	-7.55 log(M)
Trastuzumab HCDR3 variant ARWWYGGRNYFDI (Fab, V domains shown) VH: EVQLVESGGGLVQPGGSLRLSCAASGFNIKDTYIHWVRQAPGKGLEWVARIYPTNGYTRYADSVKGRFTISADTSKNTAYLQMNSLRAEDTAVYYCARWWYGGRNYFDIWGQGTLVTVSS VL: not shown	116 nM	-6.94 log(M)
Trastuzumab HCDR3 variant ARTTSSIPSSFDY (Fab, V domains shown) VH: EVQLVESGGGLVQPGGSLRLSCAASGFNIKDTYIHWVRQAPGKGLEWVARIYPTNGYTRYADSVKGRFTISADTSKNTAYLQMNSLRAEDTAVYYCARTTSSIPSSFDYWGQGTLVTVSS VL: not shown	149 nM	-6.83 log(M)
